PMC3915414

How the values were obtained:
Assay in all cases: solid-phase binding assay
[1] = biological target: alpha-dystroglycan from dystrophin-deficient (mdx) mouse heart (mouse (endogenous in heart)) (UniProt Q62165)
[2] = biological target: alpha-dystroglycan from dystrophin/utrophin-deficient (dko) mouse heart (mouse (endogenous in heart)) (UniProt Q62165)
[3] = biological target: alpha-dystroglycan from wild-type (C57BL/10) mouse heart (mouse (endogenous in heart)) (UniProt Q62165)

Substance: Engelbreth-Holm-Swarm (EHS) laminin (from UniProt P19137 25-3083; P02469 22-1786; P02468 34-1607) (complex)
- Kd [1]: 33 nM
- Kd [2]: 18.8 nM
- Kd [3]: 21.2 nM
